From patent US20150037340A1 (PEIRRE FABRE MEDICAMENT, published 2015)

How the values were obtained:
[1] = molecular target: human protein Axl (cellular form on the cell surface) (human) (UniProt P30530); test: cell-based or functional assay
[2] = molecular target: human protein Axl (cellular form on the cell surface) (human) (UniProt P30530); test: flow cytometry, 9G4 labelling of untreated (No Ab) SN12C cells
[3] = molecular target: human protein Axl (cellular form on the cell surface) (human) (UniProt P30530); test: flow cytometry, 9G4 labelling of SN12C cells treated 24 h with 9G4
[4] = molecular target: human protein Axl (cellular form on the cell surface) (human) (UniProt P30530); test: Qifikit quantitative flow cytometry on MDA-MB-231 cells
[5] = molecular target: human protein Axl (cellular form on the cell surface) (human) (UniProt P30530); test: Qifikit quantitative flow cytometry on NCI-H125 cells
[6] = molecular target: human protein Axl (cellular form on the cell surface) (human) (UniProt P30530); test: Qifikit quantitative flow cytometry on A431 cells
[7] = molecular target: human protein Axl (cellular form on the cell surface) (human) (UniProt P30530); test: Qifikit quantitative flow cytometry on SN12C cells
[8] = molecular target: human protein Axl (cellular form on the cell surface) (human) (UniProt P30530); test: flow cytometry, MAB154 labelling of untreated (No Ab) SN12C cells
[9] = molecular target: human protein Axl (cellular form on the cell surface) (human) (UniProt P30530); test: Qifikit quantitative flow cytometry on MDA-MB-435S cells
[10] = molecular target: human protein Axl (cellular form on the cell surface) (human) (UniProt P30530); test: Qifikit quantitative flow cytometry on Panc1 cells
[11] = molecular target: human protein Axl (cellular form on the cell surface) (human) (UniProt P30530); test: Qifikit quantitative flow cytometry on PC3 cells
[12] = molecular target: human protein Axl (cellular form on the cell surface) (human) (UniProt P30530); test: Qifikit quantitative flow cytometry on DU-145 cells
[13] = molecular target: human protein Axl (cellular form on the cell surface) (human) (UniProt P30530); test: Qifikit quantitative flow cytometry on NCI-H226 cells
[14] = molecular target: human protein Axl (cellular form on the cell surface) (human) (UniProt P30530); test: Qifikit quantitative flow cytometry on Calu-1 cells
[15] = molecular target: human protein Axl (cellular form on the cell surface) (human) (UniProt P30530); test: Qifikit quantitative flow cytometry on MCF7 cells
[16] = molecular target: human protein Axl (cellular form on the cell surface) (human) (UniProt P30530); test: Qifikit quantitative flow cytometry on A172 cells
[17] = molecular target: T1, human protein Axl (cellular form on the cell surface) (human, UniProt P30530 26-894); test: flow cytometry on SN12C cells, anti-human IgG Alexa488; table under the graph, unit from the axis Log [M]
T1 construct: also called Axl receptor; membrane Axl receptor
T1 sequence: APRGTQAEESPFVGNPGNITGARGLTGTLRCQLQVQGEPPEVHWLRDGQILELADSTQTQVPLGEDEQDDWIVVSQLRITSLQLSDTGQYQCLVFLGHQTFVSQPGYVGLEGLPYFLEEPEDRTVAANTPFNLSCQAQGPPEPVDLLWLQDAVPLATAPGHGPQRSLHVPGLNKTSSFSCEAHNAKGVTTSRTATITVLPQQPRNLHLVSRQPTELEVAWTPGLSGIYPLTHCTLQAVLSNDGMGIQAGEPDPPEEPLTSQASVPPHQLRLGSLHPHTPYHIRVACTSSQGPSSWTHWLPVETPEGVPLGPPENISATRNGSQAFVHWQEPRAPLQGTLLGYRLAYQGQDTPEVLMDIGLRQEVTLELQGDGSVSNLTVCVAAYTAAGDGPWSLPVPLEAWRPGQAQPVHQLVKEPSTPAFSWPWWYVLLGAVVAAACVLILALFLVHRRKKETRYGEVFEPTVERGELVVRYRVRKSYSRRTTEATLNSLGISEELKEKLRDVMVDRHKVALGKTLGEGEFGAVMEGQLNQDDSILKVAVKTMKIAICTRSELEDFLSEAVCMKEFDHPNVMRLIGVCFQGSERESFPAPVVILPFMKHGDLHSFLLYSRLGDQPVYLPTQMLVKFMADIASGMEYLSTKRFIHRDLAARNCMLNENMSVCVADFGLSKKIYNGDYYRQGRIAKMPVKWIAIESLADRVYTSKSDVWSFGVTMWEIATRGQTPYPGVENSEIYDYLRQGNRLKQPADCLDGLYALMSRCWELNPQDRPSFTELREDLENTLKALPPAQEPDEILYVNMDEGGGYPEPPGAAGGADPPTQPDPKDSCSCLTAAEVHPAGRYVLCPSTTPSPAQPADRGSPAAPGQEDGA
Description: Cells were detached using trypsin and cell concentration was adjusted at 1×10⁶ cells/ml in FACS buffer. A volume of 100 μL of cell suspension was incubated with increasing concentrations of either isotype controls or anti-Axl antibodies for 20 min. at 4° C. Cells were then washed three times with FACS buffer and incubated for 20 min. more using either anti-mouse IgG Alexa488 secondary antibody or anti-human IgG Alexa488 secondary antibody at 4° C. in the dark. Cells were washed three times with FACS buffer and resuspended with 100 μl of FACS buffer before adding propidium iodide.

9G4 murine IgG1 isotype control antibody
% remaining Axl, SN12C cells [1]: 117%
Δ (MFI No Ab 24 h - MFI Ab 24 h), SN12C cells [1]: -2 MFI
MFI at T24 h [2]: 11 MFI
MFI at T24 h [3]: 13 MFI

MAB154 commercial anti-Axl antibody (R and D Systems, ref MAB154)
ABC (Qifikit) [4]: 61200 ABC
ABC (Qifikit) [5]: 5540 ABC
ABC (Qifikit) [6]: 3950 ABC
ABC (Qifikit) [7]: > 100000 ABC
antigen binding capacity (ABC) [7]: > 100000 ABC
MFI at T24 h [8]: 950 MFI
ABC (Qifikit) [9]: 17800 ABC
ABC (Qifikit) [10]: 36800 ABC
ABC (Qifikit) [11]: 8420 ABC
ABC (Qifikit) [12]: 55300 ABC
ABC (Qifikit) [13]: 32100 ABC
ABC (Qifikit) [14]: > 100000 ABC
ABC (Qifikit) [15]: 71 ABC
ABC (Qifikit) [16]: 52400 ABC

B1: c1613F12 (chimeric 1613F12) (antibody, V domains shown)
VH: EVHLQQSGAELVKPGASVKLSCTASGFNIRDTYIHWVKQRPEQGLEWIGRLDPANGHTKYGPNFQGRATMTSDTSSNTAYLQLSSLTSEDTAVYYCARGAYYYGSSGLFYFDYWGQGTTLSVSS
VL: DVQITQSPSYLATSPGETITINCRASKSISKYLAWYQEKPGKTNKLLIYSGSTLQSGVPSRFSGSGSGTDFTLTISSLEPEDFAMYFCQQHHEYPLTFGAGTELELK
notes: Murine variable domains with human constant regions; also called chimeric form of the 1613F12
EC50 [17]: 1.81 nM
